The source of these data is article PMC6007404 (Nucleic Acids Research, 2018).

The target of series [1] is T1, MotA (Enterobacteria phage T4, UniProt P22915 1-211).
T1 sequence: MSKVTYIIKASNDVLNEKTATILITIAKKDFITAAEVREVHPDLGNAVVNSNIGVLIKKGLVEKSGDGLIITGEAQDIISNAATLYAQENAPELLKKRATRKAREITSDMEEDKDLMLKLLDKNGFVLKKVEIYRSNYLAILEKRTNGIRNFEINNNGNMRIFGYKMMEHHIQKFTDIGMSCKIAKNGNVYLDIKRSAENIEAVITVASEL
In words: EMSA; steep curve, value uncertain; EMSA: 0.01 pmol 32P-DNA, 1.7 pmol MotA, native 12% PAGE in 1x TBE at 4 C, other conditions as in ref 14; SPR: biotin-DNA on neutravidin chip, buffer as in ref 2. On the technique in general: A gel shift assay detects complexes by their altered migration in electrophoresis.

The target in a further series is T2, MotAlinker/CTD (Enterobacteria phage T4, UniProt P22915 93-211).
T2 sequence: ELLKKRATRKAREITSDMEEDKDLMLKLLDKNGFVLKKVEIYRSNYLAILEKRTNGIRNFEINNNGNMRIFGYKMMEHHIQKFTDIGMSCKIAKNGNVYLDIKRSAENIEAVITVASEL
In words: X-ray crystallography; cognate complexes A and C; further non-cognate copies B and D on the opposite face; 2.96 A; EMSA: 0.01 pmol 32P-DNA, 1.7 pmol MotA, native 12% PAGE in 1x TBE at 4 C, other conditions as in ref 14; SPR: biotin-DNA on neutravidin chip, buffer as in ref 2.

The target in series [2] is T1, MotA. Put plainly: competition; EMSA vs labeled N6; EMSA: 0.01 pmol 32P-DNA, 1.7 pmol MotA, native 12% PAGE in 1x TBE at 4 C, other conditions as in ref 14; SPR: biotin-DNA on neutravidin chip, buffer as in ref 2.
In series [3] the target is T1, MotA. Put plainly: EMSA; EMSA: 0.01 pmol 32P-DNA, 1.7 pmol MotA, native 12% PAGE in 1x TBE at 4 C, other conditions as in ref 14; SPR: biotin-DNA on neutravidin chip, buffer as in ref 2.
Series [4] concerns the molecule itself. Put plainly: crystal structure; MotA^linker/CTD mixed with 22 bp MotA box DNA at 1.15:1 DNA:protein; 23% PEG 8000, 0.12 M sodium acetate, 0.1 M sodium cacodylate pH 6.5, 3% glycerol; space group P6_(1), 2.96 Å; four protein copies and two DNA duplexes in the asymmetric unit.

B1: EMSA 19-mer GHMe/unmod (dsDNA)
DNA 1: AATTATTTGCTTTAGATTA
DNA 2: TAATCTAAAGCAAATAATT
modifications: beta-D-glucosyl-5-hydroxymethyl-dC at top C10
For the molecule B1, the equilibrium dissociation constant (Kd) – broadly, the constant that tells how readily two partners part at equilibrium – in the series with MotA [1] was ~20 nM.

B2: 22-mer MotA box DNA (crystal) (dsDNA)
DNA 1: GAAGCTTTGCTTAATAATCCAC
DNA 2: GTGGATTATTAAGCAAAGCTTC
For the molecule B2, in the series with MotAlinker/CTD, the binding result is recorded as “binds”.

B3: EMSA mutant competitor (dsDNA)
DNA 1: AATTATTATACTTAGATTA
DNA 2: TAATCTAAGTATAATAATT
For the molecule B3, in the series with MotA [2], the binding result was “no binding”.

B4: EMSA 19-mer unmodified (dsDNA)
DNA 1: AATTATTTGCTTTAGATTA
DNA 2: TAATCTAAAGCAAATAATT
In the case of B4, the dissociation constant (Kd) with MotA [3] was ~140 nM.

B5: MotA^linker/CTD (C-terminal domain and linker region of MotA, amino acids 93-211) (domain or fragment, bacteriophage T4, UniProt P22915 93-211, looked up)
chain: T2 sequence
Regarding B5, the binding result in series [4] was “binds”.
